Results reported in paper PMC7418779.

Molecular target: human platelet actin (non-muscle actin), used as monomeric ATP-G-actin or as pre-formed F-actin (human) (UniProt P60709)
Assay: co-sedimentation

| Kd [nM] | percent remaining in supernatant (not pelleted with F-actin) [%] | Substance |
| --- | --- | --- |
| 164 | 50 | FLAG-tagged SHTN1L, full length, purified (from UniProt Q8K2Q9 1-631) (natural protein) |
| 21.9 |  | FLAG-tagged SHTN1L lacking CCD-I (1L-ΔCCD-I), purified (domain or fragment) |
